Values quoted from earlier work in article PMC7609432.
Where two headings read alike, the source gives them in different places.

Assays:
IQGAP1 (Danio rerio) [1] = assay: SW-FCCS
IQGAP1 (Danio rerio) [2] = assay: SW-FCCS; remark: listed apart in the source

IQGAP1 (Danio rerio), sequence (P46940 2-1657): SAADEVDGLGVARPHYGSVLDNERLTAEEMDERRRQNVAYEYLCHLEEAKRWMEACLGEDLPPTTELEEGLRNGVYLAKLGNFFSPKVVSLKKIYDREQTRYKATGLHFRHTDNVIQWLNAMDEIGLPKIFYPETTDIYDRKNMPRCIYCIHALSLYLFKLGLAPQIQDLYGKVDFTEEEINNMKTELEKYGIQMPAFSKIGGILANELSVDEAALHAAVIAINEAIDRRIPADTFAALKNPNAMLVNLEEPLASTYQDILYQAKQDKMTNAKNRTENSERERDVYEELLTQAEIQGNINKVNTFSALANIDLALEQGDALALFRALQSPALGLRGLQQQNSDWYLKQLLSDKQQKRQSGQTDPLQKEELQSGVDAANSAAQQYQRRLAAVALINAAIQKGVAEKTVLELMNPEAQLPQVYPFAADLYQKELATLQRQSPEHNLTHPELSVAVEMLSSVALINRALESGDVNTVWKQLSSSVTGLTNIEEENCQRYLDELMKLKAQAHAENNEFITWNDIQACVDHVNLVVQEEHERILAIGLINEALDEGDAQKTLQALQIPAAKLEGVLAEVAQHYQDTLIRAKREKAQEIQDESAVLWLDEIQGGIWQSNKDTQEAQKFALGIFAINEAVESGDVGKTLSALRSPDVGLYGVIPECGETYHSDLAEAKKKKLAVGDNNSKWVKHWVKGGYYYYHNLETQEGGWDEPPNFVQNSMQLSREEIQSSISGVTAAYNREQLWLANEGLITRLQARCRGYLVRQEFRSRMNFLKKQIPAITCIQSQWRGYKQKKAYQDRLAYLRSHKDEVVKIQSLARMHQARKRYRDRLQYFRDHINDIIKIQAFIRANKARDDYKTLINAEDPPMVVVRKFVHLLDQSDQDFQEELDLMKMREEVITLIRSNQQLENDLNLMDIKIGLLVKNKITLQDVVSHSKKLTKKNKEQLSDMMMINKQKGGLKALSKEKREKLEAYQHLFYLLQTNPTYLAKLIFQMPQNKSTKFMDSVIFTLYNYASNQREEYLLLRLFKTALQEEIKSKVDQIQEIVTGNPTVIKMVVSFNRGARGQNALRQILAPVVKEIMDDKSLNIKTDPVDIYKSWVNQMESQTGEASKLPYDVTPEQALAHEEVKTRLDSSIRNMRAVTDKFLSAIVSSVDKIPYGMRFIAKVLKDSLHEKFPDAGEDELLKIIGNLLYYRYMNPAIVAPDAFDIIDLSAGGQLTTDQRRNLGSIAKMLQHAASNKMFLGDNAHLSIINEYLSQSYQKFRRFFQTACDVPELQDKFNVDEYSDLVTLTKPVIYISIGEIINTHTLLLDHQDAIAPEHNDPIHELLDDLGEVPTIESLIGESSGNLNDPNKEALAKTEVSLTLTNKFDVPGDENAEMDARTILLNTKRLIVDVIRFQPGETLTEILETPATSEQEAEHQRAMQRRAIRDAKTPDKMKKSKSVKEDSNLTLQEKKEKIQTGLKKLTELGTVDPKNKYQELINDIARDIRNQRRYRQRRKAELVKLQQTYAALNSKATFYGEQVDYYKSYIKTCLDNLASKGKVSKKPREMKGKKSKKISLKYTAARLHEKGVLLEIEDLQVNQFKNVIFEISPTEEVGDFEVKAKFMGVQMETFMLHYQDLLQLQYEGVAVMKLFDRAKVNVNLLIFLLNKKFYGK

- Kd (IQGAP1 (Danio rerio) [1]): 105 nM
- Kd (IQGAP1 (Danio rerio) [2]): > 1500 nM
Substance: Cdc42 (from UniProt P60953)
